# Assay results taken from patent US5919790A, “Hydroxamate inhibitors of interleukin-1β converting enzyme” (Warner-Lambert Company, priority 1997, dated 1999).
# B1: ICE (interleukin-1β converting enzyme) (Homo sapiens) (protein)
# chain 1: NPAMPTSSGSEGNVKLCSLEEAQRIWKQKSAEIYPIMDKSSRTRLALIICNEEFDSIPRRTGAEVDITGMTMLLQNLGYSVDVKKNLTASDMTTELEAFAHRPEHKTSDSTFLVFMSHGIREGICGKKHSEQVPDILQLNAIFNMLNTKNCPSLKDKPKVIIIQACRGDSPGVVWFKD
# chain 2: AIKKAHIEKDFIAFCSSTPDNVSWRHPTMGSVFIGRLIEHMQEYACSCDVEEIFRKVRFSFEQPDGRAQMPTTERVTLTRCFYLFPGH
# Substrate: CC(=O)N[C@@H](Cc1ccc(O)cc1)C(=O)N[C@H](C(=O)N[C@@H](C)C(=O)N[C@@H](CC(=O)O)C(=O)Nc1ccc2c(C)cc(=O)oc2c1)C(C)C
# Assay: ICE inhibition, Ki, fluorescence assay with Ac-Tyr-Val-Ala-Asp-AMC
# Format: biochemical
# Settings: other: substrate of ICE, HGDE buffer
# Protocol: Substrate hydrolysis is monitored for 300 seconds by observing the fluorescence of released AMC using excitation at 380 nm and emission at 460 nm. Mean rates of substrate hydrolysis are evaluated by linear-regression analysis of the fluorescence vs time traces. […] ICE Colorimetric Dose-Response (IC50) Assay
protein,measurement,value
B1,Km,15 µM
